# From US20150344570A1 (published 2015)
# T1: FcγRIIa R (FcγRIIa, allotype with Arg at position 131), extracellular domain with C-terminal His tag (human, UniProt P12318 34-217)
# T1 construct: extracellular domain; also called FcγRIIa R type; 2aR
# T1 sequence (looked up): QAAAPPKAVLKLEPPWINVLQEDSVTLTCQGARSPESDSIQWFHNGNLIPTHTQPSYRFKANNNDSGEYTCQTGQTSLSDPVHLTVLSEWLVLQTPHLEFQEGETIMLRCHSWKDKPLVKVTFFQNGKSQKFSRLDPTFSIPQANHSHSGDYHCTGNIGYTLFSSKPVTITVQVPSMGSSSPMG
# B1: GpH7-A5/GpH7-B3 variant S337_18N/GpL16-k0 (antibody, human IgG1, kappa)
# heavy 1: not shown
# heavy 2: not shown
# light: DIVMTQSPLSLPVTPGEPASISCQASESLVHSNRNTYLHWYLQKPGQSPQLLIYKVSNRFSGVPDRFSGSGSGTDFTLKISRVEAEDVGVYYCSQNTHVPPTFGQGTKVEIERTVAAPSVFIFPPSDEQLKSGTASVVCLLNNFYPREAKVQWKVDNALQSGNSQESVTEQDSKDSTYSLSSTLTLSKADYEKHKVYACEVTHQGLSSPVTKSFNRGEC
# notes: also called He Ab
# B2: GpH7-A5/GpH7-B3 variant Y296_10E/GpL16-k0 (antibody, human IgG1, kappa)
# heavy 1: not shown
# heavy 2: not shown
# light: B1 light
# notes: also called He Ab
# B3: GpH7-A5/GpH7-B3 variant S337_12R/GpL16-k0 (antibody, human IgG1, kappa)
# heavy 1: not shown
# heavy 2: not shown
# light: B1 light
# notes: also called He Ab
# B4: GpH7-A5/GpH7-B3 variant S267_03V/GpL16-k0 (antibody, human IgG1, kappa)
# heavy 1: not shown
# heavy 2: not shown
# light: B1 light
# notes: also called He Ab
# B5: GpH7-A5/GpH7-B3 variant S239_10E/GpL16-k0 (antibody, human IgG1, kappa)
# heavy 1: not shown
# heavy 2: not shown
# light: B1 light
# notes: also called He Ab
# B6: GpH7-A5/GpH7-B3 variant S267_19Q/GpL16-k0 (antibody, human IgG1, kappa)
# heavy 1: not shown
# heavy 2: not shown
# light: B1 light
# notes: also called He Ab
# B7: GpH7-B3 variant A330_04F/GpL16-k0 (antibody, human IgG1, kappa)
# heavy: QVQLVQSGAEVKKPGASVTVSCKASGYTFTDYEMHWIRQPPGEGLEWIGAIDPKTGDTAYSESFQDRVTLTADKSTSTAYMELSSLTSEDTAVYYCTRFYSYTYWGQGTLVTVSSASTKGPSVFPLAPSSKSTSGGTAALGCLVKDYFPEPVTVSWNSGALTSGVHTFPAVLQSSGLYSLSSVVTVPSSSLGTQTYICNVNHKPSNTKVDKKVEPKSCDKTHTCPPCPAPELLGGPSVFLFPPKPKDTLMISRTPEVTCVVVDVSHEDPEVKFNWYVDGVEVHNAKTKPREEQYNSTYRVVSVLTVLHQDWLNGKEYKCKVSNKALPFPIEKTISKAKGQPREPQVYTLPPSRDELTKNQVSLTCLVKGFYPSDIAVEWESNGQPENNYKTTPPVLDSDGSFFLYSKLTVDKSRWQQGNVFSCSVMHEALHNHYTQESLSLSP
# light: B1 light
# notes: also called Ho Ab A330_04F
# B8: GpH7-A5/GpH7-B3 variant S337_11K/GpL16-k0 (antibody, human IgG1, kappa)
# heavy 1: not shown
# heavy 2: not shown
# light: B1 light
# notes: also called He Ab
# B9: GpH7-A5/GpH7-B3 variant V266_06M/GpL16-k0 (antibody, human IgG1, kappa)
# heavy 1: not shown
# heavy 2: not shown
# light: B1 light
# notes: also called He Ab
# B10: GpH7-A5/GpH7-B3 variant Y296_04F/GpL16-k0 (antibody, human IgG1, kappa)
# heavy 1: not shown
# heavy 2: not shown
# light: B1 light
# notes: also called He Ab
# B11: GpH7-A5/GpH7-B3 variant S337_08L/GpL16-k0 (antibody, human IgG1, kappa)
# heavy 1: not shown
# heavy 2: not shown
# light: B1 light
# notes: also called He Ab
# B12: GpH7-A5/GpH7-B3 variant T335_05P/GpL16-k0 (antibody, human IgG1, kappa)
# heavy 1: not shown
# heavy 2: not shown
# light: B1 light
# notes: also called He Ab
# B13: GpH7-A5/GpH7-B3 variant Y296_09D/GpL16-k0 (antibody, human IgG1, kappa)
# heavy 1: not shown
# heavy 2: not shown
# light: B1 light
# notes: also called He Ab
# B14: GpH7-A5/GpH7-B3 variant S337_07I/GpL16-k0 (antibody, human IgG1, kappa)
# heavy 1: not shown
# heavy 2: not shown
# light: B1 light
# notes: also called He Ab
# B15: GpH7-A5/GpH7-B3 variant S239_14T/GpL16-k0 (antibody, human IgG1, kappa)
# heavy 1: not shown
# heavy 2: not shown
# light: B1 light
# notes: also called He Ab
# B16: GpH7-A5/GpH7-B3 variant S337_06M/GpL16-k0 (antibody, human IgG1, kappa)
# heavy 1: not shown
# heavy 2: not shown
# light: B1 light
# notes: also called He Ab
# B17: GpH7-A5/GpH7-B3 variant S337_09D/GpL16-k0 (antibody, human IgG1, kappa)
# heavy 1: not shown
# heavy 2: not shown
# light: B1 light
# notes: also called He Ab
# B18: GpH7-A5/GpH7-B3 variant T335_12R/GpL16-k0 (antibody, human IgG1, kappa)
# heavy 1: not shown
# heavy 2: not shown
# light: B1 light
# notes: also called He Ab
# B19: GpH7-A5/GpH7-B3 variant S267_06M/GpL16-k0 (antibody, human IgG1, kappa)
# heavy 1: not shown
# heavy 2: not shown
# light: B1 light
# notes: also called He Ab
# B20: GpH7-B3 variant A330_08L/GpL16-k0 (antibody, human IgG1, kappa)
# heavy: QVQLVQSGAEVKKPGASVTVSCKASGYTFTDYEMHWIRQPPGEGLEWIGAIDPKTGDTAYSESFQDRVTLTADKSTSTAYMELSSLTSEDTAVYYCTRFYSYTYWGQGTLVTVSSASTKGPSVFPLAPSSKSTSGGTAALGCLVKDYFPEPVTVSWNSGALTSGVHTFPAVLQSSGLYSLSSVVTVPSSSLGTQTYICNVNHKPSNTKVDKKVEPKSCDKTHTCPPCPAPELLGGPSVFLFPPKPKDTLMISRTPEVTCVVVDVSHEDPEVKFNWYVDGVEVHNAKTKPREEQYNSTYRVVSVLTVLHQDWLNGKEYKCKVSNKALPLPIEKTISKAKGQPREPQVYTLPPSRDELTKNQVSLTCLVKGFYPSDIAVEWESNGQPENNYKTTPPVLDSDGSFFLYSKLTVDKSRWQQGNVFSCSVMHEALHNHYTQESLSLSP
# light: B1 light
# notes: also called Ho Ab A330_08L
# B21: GpH7-A5/GpH7-B3 variant S298_06M/GpL16-k0 (antibody, human IgG1, kappa)
# heavy 1: not shown
# heavy 2: not shown
# light: B1 light
# notes: also called He Ab
# B22: GpH7-A5/GpH7-B3 variant S337_16H/GpL16-k0 (antibody, human IgG1, kappa)
# heavy 1: not shown
# heavy 2: not shown
# light: B1 light
# notes: also called He Ab
# B23: GpH7-A5/GpH7-B3 variant T335_01G/GpL16-k0 (antibody, human IgG1, kappa)
# heavy 1: not shown
# heavy 2: not shown
# light: B1 light
# notes: also called He Ab
# B24: GpH7-A5/GpH7-B3 variant Y296_13S/GpL16-k0 (antibody, human IgG1, kappa)
# heavy 1: not shown
# heavy 2: not shown
# light: B1 light
# notes: also called He Ab
# B25: GpH7-A5/GpH7-B3 variant S337_15Y/GpL16-k0 (antibody, human IgG1, kappa)
# heavy 1: not shown
# heavy 2: not shown
# light: B1 light
# notes: also called He Ab
# B26: GpH7-A5/GpH7-B3 variant S337_10E/GpL16-k0 (antibody, human IgG1, kappa)
# heavy 1: not shown
# heavy 2: not shown
# light: B1 light
# notes: also called He Ab
# B27: GpH7-A5/GpH7-B3 variant Y296_07I/GpL16-k0 (antibody, human IgG1, kappa)
# heavy 1: not shown
# heavy 2: not shown
# light: B1 light
# notes: also called He Ab
# Key:
# [1] = target: T1, FcγRIIa R (FcγRIIa, allotype with Arg …); assay: SPR (Biacore), antibody captured on antigen peptide chip, FcγR as analyte; relative binding
# [2] = target: T2, FcγRIIIa extracellular domain with C-terminal His tag (human, UniProt P08637 17-208); assay: SPR Biacore, captured antibody, FcγR analyte, relative binding
# T2 construct: extracellular domain; also called FcgRIIIa; 3a; not shown: His tag attached to the C terminus
# Procedure: Analysis of interaction between objective antibody and the FcγR was carried out using Biacore T100 (GE Healthcare). HBS-EP+ (GE Healthcare) was used as the running buffer, and the measurement temperature was set to 25° C. Chips produced by immobilizing the antigen peptide by the amine coupling method to a Series S Sencor Chip CM5 (GE Healthcare), or alternatively, chips produced by allowing preliminarily biotinylated antigen peptides to interact with and immobilize onto a Series S Sensor Chip SA (certified) (GE Healthcare) were used. Antibodies of interest were captured onto an antigen peptide-immobilized chip, and allowed to interact to each FcγR diluted with running buffer. To regenerate and repeatedly use the chip, the antibodies captured on the chip were washed off by reacting 10 mM glycine-HCl, pH 1.5.
# T2 sequence (P08637 17-208): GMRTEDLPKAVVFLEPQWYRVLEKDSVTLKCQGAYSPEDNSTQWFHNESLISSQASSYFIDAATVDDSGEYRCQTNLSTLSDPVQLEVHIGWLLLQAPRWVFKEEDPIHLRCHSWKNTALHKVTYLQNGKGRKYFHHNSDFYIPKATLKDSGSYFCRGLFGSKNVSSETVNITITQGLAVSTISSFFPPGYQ
Binder,He/Con_2aR [1],Ho/Con_3a [2]
B1,107 % of GpH7-A5/GpH7-B3/GpL16-k0 (=100),–
B2,103 % of GpH7-A5/GpH7-B3/GpL16-k0 (=100),–
B3,107 % of GpH7-A5/GpH7-B3/GpL16-k0 (=100),–
B4,116 % of GpH7-A5/GpH7-B3/GpL16-k0 (=100),–
B5,135 % of GpH7-A5/GpH7-B3/GpL16-k0 (=100),–
B6,135 % of GpH7-A5/GpH7-B3/GpL16-k0 (=100),–
B7,–,174 % of HoCon Ab GpH7-B3/GpL16-k0 (=100)
B8,103 % of GpH7-A5/GpH7-B3/GpL16-k0 (=100),–
B9,150 % of GpH7-A5/GpH7-B3/GpL16-k0 (=100),–
B10,109 % of GpH7-A5/GpH7-B3/GpL16-k0 (=100),–
B11,107 % of GpH7-A5/GpH7-B3/GpL16-k0 (=100),–
B12,104 % of GpH7-A5/GpH7-B3/GpL16-k0 (=100),–
B13,106 % of GpH7-A5/GpH7-B3/GpL16-k0 (=100),–
B14,109 % of GpH7-A5/GpH7-B3/GpL16-k0 (=100),–
B15,103 % of GpH7-A5/GpH7-B3/GpL16-k0 (=100),–
B16,105 % of GpH7-A5/GpH7-B3/GpL16-k0 (=100),–
B17,115 % of GpH7-A5/GpH7-B3/GpL16-k0 (=100),–
B18,100 % of GpH7-A5/GpH7-B3/GpL16-k0 (=100),–
B19,122 % of GpH7-A5/GpH7-B3/GpL16-k0 (=100),–
B20,–,138 % of HoCon Ab GpH7-B3/GpL16-k0 (=100)
B21,108 % of GpH7-A5/GpH7-B3/GpL16-k0 (=100),–
B22,109 % of GpH7-A5/GpH7-B3/GpL16-k0 (=100),–
B23,104 % of GpH7-A5/GpH7-B3/GpL16-k0 (=100),–
B24,102 % of GpH7-A5/GpH7-B3/GpL16-k0 (=100),–
B25,105 % of GpH7-A5/GpH7-B3/GpL16-k0 (=100),–
B26,112 % of GpH7-A5/GpH7-B3/GpL16-k0 (=100),–
B27,101 % of GpH7-A5/GpH7-B3/GpL16-k0 (=100),–
